This data set in a line: yeast display, Sf9 membrane polyspecificity reagent, FACS + sequencing; frameworks hold sequencing errors. The procedure, abridged: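 Galactose-induced (36–48 hours) yeast carrying a synthetic nanobody display library were exposed to 10% biotinylated, detergent-solubilized Sf9 membrane reagent at 4 °C for 1 hour. FACS followed streptavidin microbead enrichment, using low and high (top ~1%) gates for expression (anti-HA) and reagent binding (streptavidin). Colony PCR, MiSeq 2 × 250 sequencing and CDR-length filtering followed. Labels for polyreactivity reflect the gate of origin.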
Regarding “QVQLVESGGGLGQAGGSLRLSCAASGSIIPWNVMGWSRQARGKEREFVAGITFRVGSTYYADSVKGRFTISRDNAKNTVYLQMNSLKPEDTAVYYCAALIRAVDRYTYRYGYWGQGTQVTVSS”, the “polyreactivity (PSR sort gate)” value is reported as “high polyreactivity”.

Turning to “QVQLVESGGGLGQAGGSLRLSCAASGSTFARNTMGWYRQAPGKERELVAVITRGDSTYYADSVKGRFTISRDNAKNTVNLQMNSLKPEDTAVYYCNAYFRYAYPSKMDYWGQGTQVTVSS”, the “polyreactivity (PSR sort gate)” value was “low polyreactivity”. In the case of “QVQLVESGGGLGQAGGSLRLSCAASGSTFPYYAMGWSRPAPGKERELVAVITSSGSRTYYADSVKGRFSMSRDKAKNTVYLQMNSLKPEETAVYYCARDTRYYRPYRSQYDYWGQGTQVTVSS” it was “high polyreactivity”.

As to “QVQLVESGGGLGQAGGTLRLTCAASGSIFRTYAMGWYRQAPGKERELVAAITWSGGRTYYADSVKGRFTISRDNATNTVYLPMISLKPDDTAVYYCNAVYLAYGGDYWGQGTQVTVSS”, the “polyreactivity (PSR sort gate)” value is given as “high polyreactivity”. For “QVQLVESGGGLIQAGGSLRLSCAASGIIFYPYTMGWYRQAPGKERELVAAIRQSGTSTYYADSVKGRFTISRDNAKNTVYLQMNSLKPEDTAVYYCAAPPYYSYDYWGQGTQVTVSS”, the “polyreactivity (PSR sort gate)” value is recorded as “low polyreactivity”. Take “QVQLVESGGGLLHAGGSLRLSCAASGRIFWFYTMGWYRQAPGKERELVAAISDSAGSTYYADSVKGRFTISRDNAKYTVYVPMNSLKPEDTAVYYCDADGWWQYDYWGHGTQVTVSS”: the “polyreactivity (PSR sort gate)” value is “low polyreactivity”. The same measure for “QVQLVESGGGLLQAGGRLRLSCAASGSIFPYYAMGWYRQAPGKERALVAAISDSGDSTYYADSVKGRFTMSRDNAKNTVYLQMNSLKPEDTAVYYCAADQTSSYYDPWGDYWGQGTQVTVSS”: “low polyreactivity”; for “QVQLVESGGGLLQAGGSLRFSCAASGRILAGNAMGWYRQAPGTEREWVAAICSVDSTNYADSVKGRFTISRDNAKNTFYLLMYSLKPEDSAVYYCARVPQYNTYSEFDSWGQGTQVTVSS”: “low polyreactivity”; for “QVQLVESGGGLLQAGGSLRLSCAASGFIFRTYAMGWYRQAPGKERELVARISWSGGSTYYADSVKGRFTISRDNAKNTVYLQMNSLITEDTAVYYCARLGTLYESIEYDYWGQGTQVTVSS”: “low polyreactivity”. The same measure for “QVQLVESGGGLLQAGGSLRLSCAASGFIFSLYAMGWYRQAPGKERELVASINRRGTSTFYADSVKGRFTISLDNAKKTVYLQMNSMKPEDTAVYYCNAYPVAAIRSTGSYDYWGQGTQVTVSS”: “low polyreactivity”; for “QVQLVESGGGLLQAGGSLRLSCAASGFTFQYNAMGWYRQAPGKERELVAAISRSGTSTYYADSVKGRFTISRDNAKNTVYLQMNSLKPEDTGVYYCNAYYLSGSVYWTGDIYDYWGQGTQVTVSS”: “high polyreactivity”. In the case of “QVQLVESGGGLLQAGGSLRLSCAASGFTFSFYARGWYRQAPGKERELVAAISYSGGITYYADSVKGRFTISRDNAKNTVYLQINSLKPEDTAVYYCAAVPGISVGRQPGYDYDYWGHGTQVTVSS”, the “polyreactivity (PSR sort gate)” value is reported as “low polyreactivity”. The same measure for “QVQLVESGGGLLQAGGSLRLSCAASGFTFYPNAMGWYRQAPGKERELVAAISRSGSSTYYADSVKGRFTISRDNAKNTVYLQMNSLKPEDTAVYYCNRYGRQYDFYYWGQGTQVTVSS”: “high polyreactivity”.

With “QVQLVESGGGLLQAGGSLRLSCAASGFTISYNVMGWYRQAPGKERELVAAITYSGGSTYYADSVKGRFTISRDNAKNTVYLQMNSLKPEDTAVYYCAAENGMPMDYWGQGTQVTVSS”, the “polyreactivity (PSR sort gate)” value is reported as “low polyreactivity”. Turning to “QVQLVESGGGLLQAGGSLRLSCAASGIIIYYYAMGWYRQAPGKERELVAAITYRGGSTYADSVKGRFTISRDNAKNTVYLQMNSLKPEDTAVYYCNAVWEEKYQAPGSYDYWGQGTQVTVSS”, the “polyreactivity (PSR sort gate)” value is listed as “low polyreactivity”. The same measure for “QVQLVESGGGLLQAGGSLRLSCAASGITFTSYVMGWYRQAPGKERELVAAIRWSGGRTYYADSVKGRFTISRDNAKYTVYLQMNSLKPEDTAVYYCNRVTRSHVDYWGQGTQVTVSS”: “high polyreactivity”; for “QVQLVESGGGLLQAGGSLRLSCAASGRIFAVYAMGWYRQAPGKEREFVAAISYSGGITYYADSVKGRFTISRDNAKNTVYLQMNSLKPEDSAVFYCNSYYYFWGQGTQVTVSS”: “low polyreactivity”; for “QVQLVESGGGLLQAGGSLRLSCAASGRIFGDYGMGWYRQAPGKERELVAAITDRGGTTYYADSVKGRFTISRDNAKKTVYLQMNSMKPEDNAVYYCNARQSDIFDYDYWGQGTQVTVSS”: “low polyreactivity”. “QVQLVESGGGLLQAGGSLRLSCAASGRIFGVYAMGWYRQAPGKEMELVAAISWGGGSTYYADSVKGRFTISRDNAKNTVYLQMISLKPEDTAVFDCAADPPDGFYYTWDYDYWGQGTQVTVSS”: the “polyreactivity (PSR sort gate)” value is given as “low polyreactivity”.

Consider “QVQLVESGGGLLQAGGSLRLSCAASGRIFHYYAMGWYRQAPGKERELVAGIETSGGSTYYADSVNWRFTISRDNAKNTVYLKLNSLKPEDTAVYYCATDQYYSYDYVYWGQGTQVTVSS”, for which the “polyreactivity (PSR sort gate)” value is recorded as “low polyreactivity”.

Consider “QVQLVESGGGLLQAGGSLRLSCAASGRIFYSNAMGWYRQAPGKERELVATRTRRGGGTYYADSVKGRFTISRDNAKNSVYLQMNSLKPVDTAVYSCNAYDILPGGNFWYWYGSWGQGTQVTVSS”, for which the “polyreactivity (PSR sort gate)” value is on record as “high polyreactivity”. In the case of “QVQLVESGGGLLQAGGSLRLSCAASGRTFSGYTMGWYRQAPGKERELLATIRDRGGSTYYADSVKGRFTISRDNAKNTVYLQMNSLTPEDSAVYYCAARRGRRYYYWGQGTQVTVSS”, the “polyreactivity (PSR sort gate)” value is on record as “high polyreactivity”.

On to “QVQLVESGGGLLQAGGSLRLSCAASGRTFYSNAMGWYRQAPGKERELVATISSGGSTNYADSVKGRFTISRDNAKNTVYLQMNSLKPEDTAVYYCAKRTHQFGVSRSYNTYYYWGQGTQVTVSS”, for which the “polyreactivity (PSR sort gate)” value was “low polyreactivity”.

For the sequence “QVQLVESGGGLLQAGGSLRLSCAASGRTFYVYAMGWYRQAPGKEREFVAAIDWGGGTTYYADSVKGRFTISRDNAKNNVYLQMNCLKPEDTAVYYCNAAYTDRFYYWGQGTQVTVSS”, the “polyreactivity (PSR sort gate)” value is recorded as “high polyreactivity”. Consider “QVQLVESGGGLLQAGGSLRLSCAASGSIFGYYAMGWYRQAPGKERELVAAISRSGGSTYYADSVKGRFTISRDNAKNTVYLQMNSLKPEDTAVYYCAADDYPYGNYYWGQGTQVTVSS”, for which the “polyreactivity (PSR sort gate)” value was “high polyreactivity”. Consider “QVQLVESGGGLLQAGGSLRLSCAASGSIFTLYDMGRYRQAPGKERELVAAITSGGSTDYADSVKGRFTISRDYAKNTVFLQMNSLKPEDTAVYYCNAEAYPYWYRGASRDYDYWGQGTQVTVSS”, for which the “polyreactivity (PSR sort gate)” value was “low polyreactivity”. In the case of “QVQLVESGGGLLQAGGSLRLSCAASGSTFPSYAMGWYRQAPGKERELVAAINSGGGTNYADSVKGRFTISRDNAKNNVYLQMNSLKPEDTAVYYCAKSRYDYTKTDGGYWGQGTQVTVSS” it was “low polyreactivity”; in that of “QVQLVESGGGLLQAGGSLRLSCAASGSTFVYYAMGWYRQAPGKERELVASINSGGSTYYADSVKGRFRISRDNEKNTVYLQMNSLKPEDTAVYYCAATSIPPSVHLQDPTYDYWGQGTQVTVSS”, “low polyreactivity”.

With “QVQLVESGGGLLQAGGSLRLSCAASGSTFYIYSMGCYRQAPGKERELVARISGAGGSTYYSDSVKGRFTISRDNAKNTVYFQMNCLNPEDTAVYYCAAVDIYKYYQYYACPYDSYDYWGQGTQVTVSS”, the “polyreactivity (PSR sort gate)” value was “low polyreactivity”.

As for “QVQLVESGGGLLQAGGSLRLSCAASGSTIWSYAMGWYRQAPGKERELVASITWSGGSTYADSVKGRFTISRDNAKNTVYLQMNSLKPEDTAVYYCAADRGSYPDTGDYWGHGTQVTVSS”, the “polyreactivity (PSR sort gate)” value was “low polyreactivity”. On to “QVQLVESGGGLLQAGGSLRLSCAASGSTVGINAMGWYRQAPGKERELVASITRRGGSTYYADSVKGRFTISRDNAKNTVYLQMNSLKPEDTAVYYCNKTYRYGTPLYDYWGQGSQVTVSS”, for which the “polyreactivity (PSR sort gate)” value was “high polyreactivity”. On to “QVQLVESGGGLLQAGGSLRLSCAASGYTFASNAMGWYRQAPGKERELVAAITRGGSTNYADSVKGRFTISRDNAKNTVYLQMNSLKPEDTAVYYCAAPRYRHTRKGGYWGQGTQLTVSS”, for which the “polyreactivity (PSR sort gate)” value is “low polyreactivity”. The same measure for “QVQLVESGGGLLQAGGSLRVSCAASGSTLVGNTMGWYRQAPGKESELLAAITGVGSTNYADSVKGRFTISRDNAKNSVYLQMNSLKPEDTAVYSCAAEYSYTYIVSYLYDMDYWGQATQVTVSS”: “low polyreactivity”. With “QVQLVESGGGLLQAGGSLSLICAASGFSIYKNAMGWYSQAPGKERELVAAITSSGGYTYYADSVKGRFTISRDNAKNTVYLQMNILKPEDTAVYYCAGSPQAYIADYDYWGQGTQVTVSS”, the “polyreactivity (PSR sort gate)” value is given as “low polyreactivity”. The same measure for “QVQLVESGGGLVEAGGSLRLSCAAGGRIVDRYAMGWYRQAPGKEREVVAAISDRGGSTYYADSVKGRFTISRDNAKNTVYLQMNSLKPEDTAVYYCNKVYGWYSFTWGPTASDYWGQGTQVTVSS”: “low polyreactivity”; for “QVQLVESGGGLVEAGGSLRLSCAASGIFRYYAMGWYRQAPGKERELVASITGGGSTYYADSVKGRFTISRDNAKNTVYLQMNSLKPEDTAVYYCNTAGAYYRWTPYYYWGQGTQVTVSS”: “high polyreactivity”.

As for “QVQLVESGGGLVEAGGSLRLSCAASGRIFLYKAMGWYRQAPVKERELVAAITASGGTTYYADSVKGRFTLSRDNAKNTVYLQMNSLKPEDTAVYYCNAYSYSGERYYWGQGTQVTVSS”, the “polyreactivity (PSR sort gate)” value is “high polyreactivity”.

Regarding “QVQLVESGGGLVEAGGSLRLSCAASGSNFPWNAMGWSIQAPGKESDLVAGISSRGGSTYYADSVKGRFTISRDNAKNTVYLQMNSLKPEDTAVYYCNAAAVRRGRLVKLDYWGQGTQVTVSS”, the “polyreactivity (PSR sort gate)” value is “high polyreactivity”. The same measure for “QVQLVESGGGLVEAGGSLRLSCAASGSTFGYNAMGWYRQAPGKERELVAAISWSGGSTYYADSVKGRFTISRDNAKNTVYLQMNSLKPEDTAVYYCATPYVKWNDYWGQGTQVTVST”: “low polyreactivity”; for “QVQLVESGGGLVEAGGSLRLSCAASGSTSRHNTMGWYRQAPGKERELVAAISGGGTTYYADSVKGRFTISRDNAKNTVYLQMNRLNPEDTAVDDCAAAFWGDYASSYRAGLDYWGQGTQETVSS”: “low polyreactivity”. As for “QVQLVESGGGLVEAGGSLRLTCAASGSIFTYYAMGWFRPAPGKERELVADITKSGGRTYYADSVKGRFTISRDNAKNTVYLQMYSLKPEDTAVYYCAAYRRNSRWELDYWGHGTQVTVSS”, the “polyreactivity (PSR sort gate)” value is “high polyreactivity”.

Source of the values: the nanobody polyreactivity screen of Harvey et al. (2022).
